Results reported in patent publication US20250136687A1 (SHANDONG SIMCERE BIOPHARMACEUTICAL, published 2025).
Read-outs that look alike come from different tables or passages of the source.

Assays:
[1] = target: T1, cynomolgus monkey CD3 on the surface of expanded monkey T cells (cynomolgus monkey, UniProt Q95LI5 22-198; Q95LI8 22-171; Q95LI7 23-181); test: FACS, expanded monkey T cells
T1 construct: whole, on cells; Endogenous CD3 within the TCR-CD3 complex on T cells expanded from cynomolgus monkey PBMC
Description: (§1) The binding of the chimeric antibodies to CD3 on the cell surface was analyzed by detecting the binding of the antibodies to Jurkat cells and human T cells. Suspension cells Jurkat cells were scale-up cultured in T-75 cell culture flasks to the logarithmic growth phase, the supernatant of the medium was discarded by centrifugation, and the cell pellet was washed 2 times with PBS for later use. The expanded human T cells were washed 2 times with PBS for later use. After counting the cells in the previous step, the cell pellet was resuspended with [PBS+2% (w/w) BSA] blocking solution to 4×10⁶ cells/ml, and added to a 96-well FACS reaction plate at 50 μl/well, and then the chimeric antibody to be tested was added at 50 μl/well, and incubated at 4° C. for 1 h. The cells were centrifuged and washed 3 times with a PBS buffer. […] The cells were centrifuged and washed 5 times with PBS, and FACS (FACS Canto™, purchased from BD Company) was used for detection and result analysis. Data analysis was performed by software (CellQuest) to obtain the mean fluorescence […] (MFI) of the cells. And then software (GraphPad Prism8) was used for analysis, data fitting, and EC50 value calculation. The same method was used to simultaneously detect the binding of the chimeric antibodies to endogenous CD3 negative cells MOLT4 cells.
FACS detection and data analysis were performed on the cryopreserved monkey T cells of Example 2.4 according to the method in Example 5.1.

[2] = target: T1, cynomolgus monkey CD3 on the surface of …; test: FACS, expanded monkey T cells; remark: listed apart in the source
Description: as §1, with “MOLT4 cells. […]” for “MOLT4 cells.”

[3] = target: T2, recombinant human CD3ε-ECD His protein (human, UniProt P07766 23-126); test: SPR (Biacore), antibody captured on Protein A chip
T2 construct: extracellular domain; also called human CD3ε-His; CD3ε antigen protein; not shown: His tag

human CD3ε/δ-His = target: T3, human CD3ε/δ-His (human, UniProt P07766 23-126; P04234 22-105); test: SPR, antibody captured on Protein A chip
T3 construct: Bought recombinant heterodimer with His tag; also called human CD3ε/δ protein
T3 sequence (P07766 23-126, stated change not applied, form in doubt, chain 1 of 2): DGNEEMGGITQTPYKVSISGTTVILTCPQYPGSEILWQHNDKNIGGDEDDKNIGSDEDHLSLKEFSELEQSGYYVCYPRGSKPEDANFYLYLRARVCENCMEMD
T3 sequence (P04234 22-105, stated change not applied, form in doubt, chain 2 of 2): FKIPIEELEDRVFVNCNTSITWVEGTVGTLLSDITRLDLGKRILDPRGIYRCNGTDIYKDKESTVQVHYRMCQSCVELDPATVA

T1 sequence (Q95LI5 22-198, chain 1 of 3): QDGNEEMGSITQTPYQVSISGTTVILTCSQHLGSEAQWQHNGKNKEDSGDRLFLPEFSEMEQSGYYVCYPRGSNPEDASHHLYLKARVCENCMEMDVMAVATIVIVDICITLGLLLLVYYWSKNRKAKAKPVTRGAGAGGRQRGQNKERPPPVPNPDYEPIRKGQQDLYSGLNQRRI
T1 sequence (Q95LI8 22-171, chain 2 of 3): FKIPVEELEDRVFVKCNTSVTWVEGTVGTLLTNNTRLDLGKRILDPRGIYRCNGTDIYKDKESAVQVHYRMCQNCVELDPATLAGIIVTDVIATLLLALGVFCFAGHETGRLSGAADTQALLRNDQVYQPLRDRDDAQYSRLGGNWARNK
T1 sequence (Q95LI7 23-181, chain 3 of 3): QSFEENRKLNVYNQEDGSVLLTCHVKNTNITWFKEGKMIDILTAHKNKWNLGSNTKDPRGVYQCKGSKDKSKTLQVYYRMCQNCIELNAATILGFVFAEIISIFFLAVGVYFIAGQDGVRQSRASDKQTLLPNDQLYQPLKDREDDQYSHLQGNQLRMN
T2 sequence (P07766 23-126): as the sequence (P07766 23-126, stated change not applied, form in doubt, chain 1 of 2) above

EC50 [1]: 0.63 nM | MFI_Max [1]: 24100 MFI | EC50 [2]: 0.53 nM | Kd [3]: 0.203 nM | koff [3]: 0.000321 s⁻¹ | kon [3]: 1.58e+06 M⁻¹ s⁻¹ | Kd (human CD3ε/δ-His): 21.3 nM | koff (human CD3ε/δ-His): 0.0327 s⁻¹ | kon (human CD3ε/δ-His): 1.53e+06 M⁻¹ s⁻¹
B1: 40G5c-hIgG1 (antibody, V domains shown)
VH: EVQLVQSGAEVKKPGASVKVSCKASGYTFTNYYIHWVRQAPGQGLEWIGWIYPGDGNTKYNEKFKGRATLTADTSTSTAYLELSSLRSEDTAVYYCARDSYSNYYFDYWGQGTLVTVSS
VL: DIVMTQSPDSLAVSLGERATINCKSSQSLLNSRTRKNYLAWYQQKPGQPPKLLIYWASTRESGVPDRFSGSGSGTDFTLTISSLQAEDVAVYYCTQSFILRTFGQGTKVEIKR
